Measured values taken from patent US20240132578A1.

What was measured:
Test in all cases: cell-based or functional assay
[1] = target: aMLV envelope protein on pseudovirus (negative control virus)
[2] = target: HIV-1 93IN905 envelope glycoprotein (Env) on pseudovirus (HIV-1)
[3] = target: HIV-1 MGRM-C-028 envelope glycoprotein (Env) on pseudovirus (HIV-1)
[4] = target: HIV-1 MGRM-A-010 envelope glycoprotein (Env) on pseudovirus (HIV-1)
[5] = target: HIV-1 92TH021 envelope glycoprotein (Env) on pseudovirus (HIV-1)
[6] = target: HIV-1 MGRM-D-001 envelope glycoprotein (Env) on pseudovirus (HIV-1)
[7] = target: HIV-1 92UG024 envelope glycoprotein (Env) on pseudovirus (HIV-1)
[8] = target: HIV-1 94UG103 envelope glycoprotein (Env) on pseudovirus (HIV-1)
[9] = target: HIV-1 NL43 envelope glycoprotein (Env) on pseudovirus (HIV-1)
[10] = target: HIV-1 MGRM-AG-005 envelope glycoprotein (Env) on pseudovirus (HIV-1)
[11] = target: HIV-1 MGRM-C-027 envelope glycoprotein (Env) on pseudovirus (HIV-1)
[12] = target: HIV-1 CMU02 envelope glycoprotein (Env) on pseudovirus (HIV-1)
[13] = target: HIV-1 92RW020 envelope glycoprotein (Env) on pseudovirus (HIV-1)
[14] = target: HIV-1 92BR020 envelope glycoprotein (Env) on pseudovirus (HIV-1)
[15] = target: HIV-1 APV6 envelope glycoprotein (Env) on pseudovirus (HIV-1)
[16] = target: HIV-1 MGRM-C-026 envelope glycoprotein (Env) on pseudovirus (HIV-1)
[17] = target: HIV-1 JRCSF envelope glycoprotein (Env) on pseudovirus (HIV-1) (UniProt P20871)
[18] = target: HIV-1 APV17 envelope glycoprotein (Env) on pseudovirus (HIV-1)
[19] = target: HIV-1 APV13 envelope glycoprotein (Env) on pseudovirus (HIV-1)
[20] = target: HIV-1 MGRM-D-018 envelope glycoprotein (Env) on pseudovirus (HIV-1)
[21] = target: HIV-1 92UG005 envelope glycoprotein (Env) on pseudovirus (HIV-1)
[22] = target: HIV-1 93UG077 envelope glycoprotein (Env) on pseudovirus (HIV-1)
[23] = target: HIV-1 JRFL envelope glycoprotein (Env) on pseudovirus (HIV-1)

B1: 5147_N06 (PGT-130) human monoclonal antibody (antibody, V domains shown)
VH: QVQLQESGPGLVKPAETLSLTCSVSGESINTGHYYWGWVRQVPGKGLEWIGHIHYTTAVLHNPSLKSRLTIKIYTLRNQITLRLSNVTAADTAVYHCVRSGGDILYYYEWQKPHWFSPWGPGIHVTVSS
VL: QSALTQPPSASGSLGQSVTISCNGTSSDIGGWNFVSWYQQFPGRAPRLIIFEVNKRPSGVPGRFSGSKSGNSASLTVSGLQSDDEGQYFCSSLFGRWDVVFGGGTKLTVL
IC50, neutralization of pseudovirus [1]: > 10 µg/mL | IC80, neutralization of pseudovirus [1]: > 10 µg/mL | IC90 (neutralization of pseudovirus) [1]: > 10 µg/mL | IC95, neutralization of pseudovirus [1]: > 10 µg/mL | IC50, neutralization of pseudovirus [2]: 0.0182 µg/mL | IC80, neutralization of pseudovirus [2]: 0.272 µg/mL | IC90 (neutralization of pseudovirus) [2]: 1.31 µg/mL | IC95, neutralization of pseudovirus [2]: 5.48 µg/mL | IC50, neutralization of pseudovirus [3]: > 10 µg/mL | IC80, neutralization of pseudovirus [3]: > 10 µg/mL | IC90 (neutralization of pseudovirus) [3]: > 10 µg/mL | IC95, neutralization of pseudovirus [3]: > 10 µg/mL | IC50, neutralization of pseudovirus [4]: 0.0054 µg/mL | IC80, neutralization of pseudovirus [4]: 0.0251 µg/mL | IC90 (neutralization of pseudovirus) [4]: 0.0643 µg/mL | IC95, neutralization of pseudovirus [4]: 0.164 µg/mL | IC50, neutralization of pseudovirus [5]: 0.0082 µg/mL | IC80, neutralization of pseudovirus [5]: 0.0261 µg/mL | IC90 (neutralization of pseudovirus) [5]: 0.0513 µg/mL | IC95, neutralization of pseudovirus [5]: 0.0963 µg/mL | IC50, neutralization of pseudovirus [6]: > 10 µg/mL | IC80, neutralization of pseudovirus [6]: > 10 µg/mL | IC90 (neutralization of pseudovirus) [6]: > 10 µg/mL | IC95, neutralization of pseudovirus [6]: > 10 µg/mL | IC50, neutralization of pseudovirus [7]: > 10 µg/mL | IC80, neutralization of pseudovirus [7]: > 10 µg/mL | IC90 (neutralization of pseudovirus) [7]: > 10 µg/mL | IC95, neutralization of pseudovirus [7]: > 10 µg/mL | IC50, neutralization of pseudovirus [8]: 0.635 µg/mL | IC80, neutralization of pseudovirus [8]: > 10 µg/mL | IC90 (neutralization of pseudovirus) [8]: > 10 µg/mL | IC95, neutralization of pseudovirus [8]: > 10 µg/mL | IC50, neutralization of pseudovirus [9]: > 10 µg/mL | IC80, neutralization of pseudovirus [9]: > 10 µg/mL | IC90 (neutralization of pseudovirus) [9]: > 10 µg/mL | IC95, neutralization of pseudovirus [9]: > 10 µg/mL | IC50, neutralization of pseudovirus [10]: 0.947 µg/mL | IC80, neutralization of pseudovirus [10]: > 10 µg/mL | IC90 (neutralization of pseudovirus) [10]: > 10 µg/mL | IC95, neutralization of pseudovirus [10]: > 10 µg/mL | IC50, neutralization of pseudovirus [11]: 0.0052 µg/mL | IC80, neutralization of pseudovirus [11]: 0.0318 µg/mL | IC90 (neutralization of pseudovirus) [11]: 0.106 µg/mL | IC95, neutralization of pseudovirus [11]: 0.464 µg/mL | IC50, neutralization of pseudovirus [12]: > 10 µg/mL | IC80, neutralization of pseudovirus [12]: > 10 µg/mL | IC90 (neutralization of pseudovirus) [12]: > 10 µg/mL | IC95, neutralization of pseudovirus [12]: > 10 µg/mL | IC50, neutralization of pseudovirus [13]: 0.014 µg/mL | IC80, neutralization of pseudovirus [13]: 0.508 µg/mL | IC90 (neutralization of pseudovirus) [13]: 3.68 µg/mL | IC95, neutralization of pseudovirus [13]: > 10 µg/mL | IC50, neutralization of pseudovirus [14]: 1.12 µg/mL | IC80, neutralization of pseudovirus [14]: > 10 µg/mL | IC90 (neutralization of pseudovirus) [14]: > 10 µg/mL | IC95, neutralization of pseudovirus [14]: > 10 µg/mL | IC50, neutralization of pseudovirus [15]: > 10 µg/mL | IC80, neutralization of pseudovirus [15]: > 10 µg/mL | IC90 (neutralization of pseudovirus) [15]: > 10 µg/mL | IC95, neutralization of pseudovirus [15]: > 10 µg/mL | IC50, neutralization of pseudovirus [16]: 0.0173 µg/mL | IC80, neutralization of pseudovirus [16]: 0.263 µg/mL | IC90 (neutralization of pseudovirus) [16]: 1.32 µg/mL | IC95, neutralization of pseudovirus [16]: 6.13 µg/mL | IC50, neutralization of pseudovirus [17]: 0.0089 µg/mL | IC80, neutralization of pseudovirus [17]: 0.0317 µg/mL | IC90 (neutralization of pseudovirus) [17]: 0.0669 µg/mL | IC95, neutralization of pseudovirus [17]: 0.134 µg/mL | IC50, neutralization of pseudovirus [18]: > 10 µg/mL | IC80, neutralization of pseudovirus [18]: > 10 µg/mL | IC90 (neutralization of pseudovirus) [18]: > 10 µg/mL | IC95, neutralization of pseudovirus [18]: > 10 µg/mL | IC50, neutralization of pseudovirus [19]: 0.0345 µg/mL | IC80, neutralization of pseudovirus [19]: 0.573 µg/mL | IC90 (neutralization of pseudovirus) [19]: 2.88 µg/mL | IC95, neutralization of pseudovirus [19]: > 10 µg/mL | IC50, neutralization of pseudovirus [20]: 0.0378 µg/mL | IC80, neutralization of pseudovirus [20]: 0.289 µg/mL | IC90 (neutralization of pseudovirus) [20]: 2.31 µg/mL | IC95, neutralization of pseudovirus [20]: > 10 µg/mL | IC50, neutralization of pseudovirus [21]: 0.474 µg/mL | IC80, neutralization of pseudovirus [21]: > 10 µg/mL | IC90 (neutralization of pseudovirus) [21]: > 10 µg/mL | IC95, neutralization of pseudovirus [21]: > 10 µg/mL | IC50, neutralization of pseudovirus [22]: > 10 µg/mL | IC80, neutralization of pseudovirus [22]: > 10 µg/mL | IC90 (neutralization of pseudovirus) [22]: > 10 µg/mL | IC95, neutralization of pseudovirus [22]: > 10 µg/mL | IC50, neutralization of pseudovirus [23]: 0.0346 µg/mL | IC80, neutralization of pseudovirus [23]: 0.751 µg/mL | IC90 (neutralization of pseudovirus) [23]: 5.72 µg/mL | IC95, neutralization of pseudovirus [23]: > 10 µg/mL
